Results published in the supplement of paper PMC12042874.
± gives the uncertainty stated by the source.

Experiment: amyloid nucleation score (Sup35N fusion, yeast selection) (log enrichment); library NNK1; higher = more nucleation; inactive = no reads after selection
Method in brief: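 In psi-negative yeast, Sup35N fusions carrying peptides of 20 random codons were induced with 100 μM copper sulfate for 24 hours. The cells then grew 7 days at 30°C on medium lacking adenine and uracil, and plasmid inserts from input and output were Illumina-sequenced, excluding sequences with under 100 input reads. Nucleation score is the DiMSum log enrichment of output over input reads, centred on the mode score of non-aggregating sequences.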

In order of rising amyloid nucleation score:
1. CEAFADTSSSYRDFYLQHQL  -1.44 ± 1.2
2. RSYVVSPVNY  -1.18 ± 0.76
3. LVPPVFRP  -1.11 ± 1.1
4. NLHFVGTCHTFSSAYNRRET  -0.95 ± 2.7
5. YVSAGWVYRSYFGIIFILRN  -0.873 ± 1.1
6. IRGVKSYLSLITLFSKTHLV  -0.833 ± 0.39
7. AYFYNEKNCYSHGKYVPYSF  -0.797 ± 1.7
8. TNGRR  -0.691 ± 1.2
9. DSSVLRMQRVDRTRAFTYHW  -0.68 ± 0.56
10. LPCHLPRLVPKGYPSFTLYK  -0.672 ± 0.4
11. SYLHMFTMFV  -0.654 ± 0.52
12. NSNMGCSVI  -0.596 ± 1
13. MDSTDWRVLLGRSMGWS  -0.596 ± 0.47
14. LWSVKEGWGRPEAGHRQLWG  -0.413 ± 0.52
15. IELSILSGRRDL  -0.406 ± 0.2
16. CCNGRLIIGNSNGNESYLSK  -0.384 ± 0.37
17. TSAASLVERNLFLVSFFIIW  -0.376 ± 1.7
18. EGPQIKAAGKPY  -0.373 ± 0.32
19. GDSRTLGLLCFYMKVG  -0.352 ± 0.41
20. WRMRYKC  -0.338 ± 1.2
21. GLVGTRICSWIDFRSV  -0.3 ± 1.5
22. LKSSNVPTRNVMRYMPSAFE  -0.292 ± 0.59
23. LSSCFPIDRSEDSDVYGYFK  -0.252 ± 0.49
24. RSLRVA  -0.214 ± 1.2
25. LLRWFALGTYVSGWRWDERR  -0.179 ± 0.32
26. GYGIMANS  -0.179 ± 0.51
27. QLVKSVY  -0.166 ± 0.35
28. RRRYGRWMLCCCVVWV  -0.147 ± 0.37
29. VGFVLFLANSERYCDRISFG  -0.13 ± 0.97
30. SIDWRAEMNSLSM  -0.109 ± 0.24
31. RYFSWFYVN  -0.089 ± 0.93
32. DADDLSIGAVNRTC  -0.066 ± 0.5
33. IKWSGVVASGGDNPLTDHSR  -0.05 ± 0.71
34. SVDLFSCRRIRLTLLEVFVT  -0.028 ± 0.41
35. ISNGFQSV  -0.027 ± 0.81
36. MKLRVDLFSYGRCLCEQ  -0.021 ± 0.25
37. FSSQYQMSAGVF  -0.013 ± 0.56
38. AKCAVASAIKVQQDDADGPD  -0.012 ± 0.52
39. TFKYFDSLTLPDLYIVVHGS  0.037 ± 0.2
40. CLPRSGLSINWTVSHNYRLI  0.11 ± 0.25
41. CTARLIA  0.13 ± 0.28
42. RKSEGIDVCGYNISAIYFKC  0.142 ± 0.64
43. CLCVGDDGGADWNKVRVITS  0.18 ± 0.61
44. GFFYEWRVYCPAWINALWWH  0.193 ± 0.77
45. NYALGFRAAWIIRLLRWSVE  0.254 ± 0.57
46. WMFTGVRLVSK  0.3 ± 0.43
47. PTSSGNATAWRNLNLLLCEL  0.328 ± 0.97
48. VDCLGFLEHICGLGDIIKTK  0.341 ± 0.25
49. CLGNNSFGDLGI  0.368 ± 0.34
50. AWAVGFYPFCRMFRSLYNYW  0.387 ± 0.98
51. NYYDSRFGLHIVLELWVARL  0.431 ± 0.2
52. LMRYALSIPRRAYVVRRLVM  0.444 ± 1.2
53. GLMSLYRQSSSLNRKAGWLT  0.46 ± 0.64
54. FILCMLMVSAGLFEQEALRY  0.506 ± 0.24
55. KTFYFTQLYSDYRLFFETGK  0.558 ± 0.46
56. AGCVPMGEGLGTLESNYSKY  0.637 ± 0.52
57. HRRSTHGMYPVPYCSSINH  0.687 ± 0.48
58. PFCGTFVCGVGLWIRVNCNR  0.728 ± 0.74
59. GELCMLSVW  0.729 ± 0.79
60. KQRSN  0.746 ± 0.7
61. CVTLCSDVSYSTYNWLPFIR  0.834 ± 0.44
62. FRKGDILRTFSMFKSKYTVG  0.839 ± 0.65
63. ILFCYLYFMLNNFT  1.07 ± 0.14
64. NDTQLRISACYALRDNGEWV  1.12 ± 0.66
65. RETIPCVEVFTHRSLDFL  1.15 ± 0.83
66. RRRHWVSSAGGKRRHLVFCA  1.22 ± 0.46
67. LNCNV  1.24 ± 0.76
68. LRWPFCQGLYTYLCSLT  1.39 ± 0.47
69. SDTVWFPYKLITSLHQSAKW  1.41 ± 0.14
70. GAIEASLVYRISNFKAGFAP  1.91 ± 0.35
71. LTFCCIMYSIYHSQPDFCGL  2.37 ± 0.099
72. RGYSSTPRFVNIACYMVQSL  2.45 ± 0.26
73. TRCIAVFIGD  2.52 ± 0.11
74. LIGFAGRVYGAFLQVSMTWN  3.2 ± 0.15
75. SIIIGMRLCHHVRSAYTNEL  3.21 ± 0.18
76. AKSQYMVVVYMPIYLWQCYI  4.01 ± 0.14
77. RLSLTINFGNKFRCITGQFD  4.01 ± 0.091
78. NYVEVINNFHAFVRVLFEIL  4.09 ± 0.15
79. QFSCFMMFIIYE  4.16 ± 0.064
80. LVVNEFALVNKPDINFCLPQ  4.56 ± 0.092
81. FSSEVRVWVWNCCFNRFSCI  4.74 ± 0.061
82. AWDYNKN  5.69 ± 0.075
83. VVVCSNLMYLNCNWAATNNL  7.163 ± 0.047
84. FIGAFRTTHSAGLLTDRMVL  7.851 ± 0.057

With KRWTKNFDCFQTVMHIYCSQ the amyloid nucleation score was “inactive”.
In the case of SLLCTIYRVCADPYMGQNMT, the amyloid nucleation score is reported as “inactive”.
For MLDFTIQGLKSCWISVSLFF, the amyloid nucleation score was “inactive”.
